Experimental data taken from patent publication US20250179210A1 (Merck KGaA, published 2025).

Tests used:
[1] = target: T1, human CEACAM5 expressed on human cancer cell lines (MKN-45, NCI-H441, SK-CO-1, SNU-16, LS174T) (human, UniProt P06731 35-685); experiment: flow cytometry on MKN-45 cells, antibody titrated
T1 construct: Endogenous protein on cells; also called MKN45 cell line expressing human CEACAM5; CEACAM5-positive cell lines
T1 sequence: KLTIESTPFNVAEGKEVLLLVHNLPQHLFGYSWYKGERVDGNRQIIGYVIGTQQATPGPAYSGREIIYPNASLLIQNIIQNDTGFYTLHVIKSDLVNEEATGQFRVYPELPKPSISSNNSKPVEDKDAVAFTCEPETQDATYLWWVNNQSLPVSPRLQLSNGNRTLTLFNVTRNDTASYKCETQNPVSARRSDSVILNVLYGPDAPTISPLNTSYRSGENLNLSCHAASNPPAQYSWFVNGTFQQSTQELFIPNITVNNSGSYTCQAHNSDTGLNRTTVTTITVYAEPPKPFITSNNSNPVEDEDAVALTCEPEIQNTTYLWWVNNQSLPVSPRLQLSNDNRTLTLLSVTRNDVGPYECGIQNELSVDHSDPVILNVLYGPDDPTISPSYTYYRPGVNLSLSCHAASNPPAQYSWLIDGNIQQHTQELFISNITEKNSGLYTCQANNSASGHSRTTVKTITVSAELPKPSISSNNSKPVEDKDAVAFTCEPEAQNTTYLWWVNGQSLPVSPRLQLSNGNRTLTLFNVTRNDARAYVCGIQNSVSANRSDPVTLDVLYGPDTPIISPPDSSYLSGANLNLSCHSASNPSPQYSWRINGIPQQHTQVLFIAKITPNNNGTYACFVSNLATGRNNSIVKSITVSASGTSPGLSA

[2] = target: T1, human CEACAM5 expressed on human cancer …; experiment: cell-based or functional assay
[3] = target: T1, human CEACAM5 expressed on human cancer …; experiment: cell-based or functional assay; remark: listed apart in the source
[4] = target: T2, recombinant human CEACAM5 A2-B2 domain (Syngene) (human, UniProt P06731 321-498); experiment: ELISA on coated antigen, antibody titrated
T2 construct: also called rhA2-B2 domain
T2 sequence: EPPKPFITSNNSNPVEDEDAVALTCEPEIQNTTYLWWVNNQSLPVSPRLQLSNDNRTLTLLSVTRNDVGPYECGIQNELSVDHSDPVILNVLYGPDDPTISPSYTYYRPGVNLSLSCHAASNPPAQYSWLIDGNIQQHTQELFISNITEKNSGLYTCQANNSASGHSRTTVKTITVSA

[5] = target: T3, recombinant human CEACAM5 A3-B3 domain (Syngene) (human, UniProt P06731 499-685); experiment: ELISA on coated antigen, antibody titrated
T3 construct: also called rhA3-B3
T3 sequence: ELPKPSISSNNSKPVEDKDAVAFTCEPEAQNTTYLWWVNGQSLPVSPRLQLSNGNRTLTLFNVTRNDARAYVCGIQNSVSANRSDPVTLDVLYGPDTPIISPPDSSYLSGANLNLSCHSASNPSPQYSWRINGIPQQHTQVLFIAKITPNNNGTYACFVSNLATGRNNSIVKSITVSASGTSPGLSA

[6] = target: T4, recombinant human (rh) CEACAM5 ECD (Syngene) (human, UniProt P06731 35-685); experiment: ELISA on coated antigen, antibody titrated
T4 sequence: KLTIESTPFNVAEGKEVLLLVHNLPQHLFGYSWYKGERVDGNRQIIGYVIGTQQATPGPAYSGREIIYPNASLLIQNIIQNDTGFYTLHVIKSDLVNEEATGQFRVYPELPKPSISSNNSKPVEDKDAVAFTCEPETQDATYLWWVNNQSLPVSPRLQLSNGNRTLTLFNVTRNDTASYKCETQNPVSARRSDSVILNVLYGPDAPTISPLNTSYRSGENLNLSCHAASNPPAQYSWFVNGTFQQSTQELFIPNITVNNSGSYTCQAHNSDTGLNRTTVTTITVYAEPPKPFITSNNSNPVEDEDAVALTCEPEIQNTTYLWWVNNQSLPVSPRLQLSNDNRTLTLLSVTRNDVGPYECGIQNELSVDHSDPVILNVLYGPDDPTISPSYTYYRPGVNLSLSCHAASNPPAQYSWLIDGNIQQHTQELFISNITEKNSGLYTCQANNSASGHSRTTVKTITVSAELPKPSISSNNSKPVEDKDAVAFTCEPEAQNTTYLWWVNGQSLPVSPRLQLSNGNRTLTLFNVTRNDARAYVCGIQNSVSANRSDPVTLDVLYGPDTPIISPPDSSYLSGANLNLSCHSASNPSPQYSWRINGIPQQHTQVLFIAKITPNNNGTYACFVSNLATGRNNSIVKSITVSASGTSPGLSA

[7] = target: T5, BSA (bovine serum albumin) (bovine, UniProt P02769 25-607); experiment: ELISA on coated antigen, antibody titrated
T5 construct: Negative control; also called unrelated protein

[8] = target: T6, recombinant human CEACAM5 N-A1-B1 domain (Syngene) (human, UniProt P06731 35-320); experiment: ELISA on coated antigen, antibody titrated
T6 construct: also called rhN-A1-B1
T6 sequence: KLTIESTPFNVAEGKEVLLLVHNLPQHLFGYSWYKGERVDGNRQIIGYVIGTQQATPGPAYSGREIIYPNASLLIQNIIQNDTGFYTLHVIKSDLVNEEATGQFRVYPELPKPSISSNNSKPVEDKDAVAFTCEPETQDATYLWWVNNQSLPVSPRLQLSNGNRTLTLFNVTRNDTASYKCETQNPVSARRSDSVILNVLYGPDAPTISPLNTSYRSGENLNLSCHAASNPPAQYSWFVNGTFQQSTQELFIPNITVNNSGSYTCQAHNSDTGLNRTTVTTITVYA

[9] = target: T2, recombinant human CEACAM5 A2-B2 domain …; experiment: ELISA, 1 µg/ml coated antigen, antibody titrated; rhA2-B2 domain coated
[10] = target: T1, human CEACAM5 expressed on human cancer …; experiment: flow cytometry (MFI), titration on MKN-45 cells
Method: The antibody's ability to bind its target protein on cells was determined by titrating the antibody on cells that express the target (e.g. human CEACAM5) and measuring the fluorescence MFI of the cells. Model cells for antibody binding comparison were the MKN45 cell line expressing human CEACAM5 as well as a CHO cell line expressing mfCEACAM5. Titration was done with 10-point ×4 dilution, curve starting concentration 2000 nM in assay buffer (PBS×1 containing 1% BSA).

[11] = target: T1, human CEACAM5 expressed on human cancer …; experiment: cellular binding on MKN45 cells (FIG. 2)
[12] = target: T4, recombinant human (rh) CEACAM5 ECD …; experiment: ELISA, 1 µg/ml coated antigen, antibody titrated; rhCEACAM5 ECD coated
[13] = target: T1, human CEACAM5 expressed on human cancer …; experiment: binding to MKN-45 cells

T5 sequence (P02769 25-607 limits assumed): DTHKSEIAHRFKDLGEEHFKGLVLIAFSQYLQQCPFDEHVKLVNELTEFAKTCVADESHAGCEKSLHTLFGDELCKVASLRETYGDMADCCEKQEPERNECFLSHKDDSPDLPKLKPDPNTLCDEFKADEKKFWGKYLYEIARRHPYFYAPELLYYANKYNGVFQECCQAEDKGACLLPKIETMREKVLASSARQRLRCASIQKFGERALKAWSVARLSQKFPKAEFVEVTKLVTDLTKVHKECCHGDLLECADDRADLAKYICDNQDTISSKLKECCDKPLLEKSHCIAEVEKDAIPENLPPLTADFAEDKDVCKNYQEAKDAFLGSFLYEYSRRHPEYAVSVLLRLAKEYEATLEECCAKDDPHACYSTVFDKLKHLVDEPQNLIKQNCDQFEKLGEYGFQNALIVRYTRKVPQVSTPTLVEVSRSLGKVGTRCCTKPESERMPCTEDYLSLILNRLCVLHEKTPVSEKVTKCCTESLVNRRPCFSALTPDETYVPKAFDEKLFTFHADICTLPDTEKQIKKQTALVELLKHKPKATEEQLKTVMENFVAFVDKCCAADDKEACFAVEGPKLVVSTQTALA

B1: Rituximab (antibody, human IgG1, kappa, V domains shown)
VH: QVQLQQPGAELVKPGASVKMSCKASGYTFTSYNMHWVKQTPGRGLEWIGAIYPGNGDTSYNQKFKGKATLTADKSSSTAYMQLSSLTSEDSAVYYCARSTYYGGDWYFNVWGAGTTVTVSA
VL: QIVLSQSPAILSASPGEKVTMTCRASSSVSYIHWFQQKPGSSPKPWIYATSNLASGVPVRFSGSGSGTSYSLTISRVEAEDAATYYCQQWTSNPPTFGGGTKLEIKR
notes: also called mAb4-M; anti-CD20 control antibody
B1: no binding (tested: 2000 nM) [1].

B2: ADC2 (mAb1-AAN-exatecan) (antibody, human IgG1, kappa)
heavy: EVQLQESGPGLVKPSQTLSLTCTVSDGSVSRGGYYLTWIRQHPGKGLEWIGYIYYSGSTYFNPSLRSRVTMSVDTSKNQFSLKLSSVTAADTAVYYCARGIAVAPFDYWGQGTLVTVSSASTKGPSVFPLAPSSKSTSGGTAALGCLVKDYFPEPVTVSWNSGALTSGVHTFPAVLQSSGLYSLSSVVTVPSSSLGTQTYICNVNHKPSNTKVDKRVEPKSCDKTHTCPPCPAPPVAGPSVFLFPPKPKDTLMISRTPEVTCVVVDVSHEDPEVKFNWYVDGVEVHNAKTKPREEQYNSTYRVVSVLTVLHQDWLNGKEYKCKVSNKALPSSIEKTISKAKGQPREPQVYTLPPSREEMTKNQVSLTCLVKGFYPSDIAVEWESNGQPENNYKTTPPVLDSDGSFFLYSKLTVDKSRWQQGNVFSCSVMHEALHNHYTQKSLSLSPG
light: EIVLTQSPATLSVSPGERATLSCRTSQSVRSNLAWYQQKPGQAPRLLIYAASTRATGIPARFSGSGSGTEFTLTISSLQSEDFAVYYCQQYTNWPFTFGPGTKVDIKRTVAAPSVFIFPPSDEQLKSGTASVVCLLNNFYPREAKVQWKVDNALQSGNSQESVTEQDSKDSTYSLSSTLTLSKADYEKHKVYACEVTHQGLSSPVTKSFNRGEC
modifications: drug-linker DL2 on the reduced interchain cysteine; drug-linker DL2 (legumain-cleavable Ala-Ala-Asn linker, exatecan) on reduced interchain cysteines; DAR 7.6 for the whole antibody
With B2 the “fold higher potency than ADC SAR DM4 against SK-CO-1 cells (viability assay)” value [2] was 2.7 fold, the “IC50 [M], cell viability assay (Cell Titer-Glo, 6 days), LS174T cells” value [3] was 2.8e-10 M and the “IC50 [M], cell viability assay (Cell Titer-Glo, 6 days), MKN-45 cells” value [3] was 4.7e-10 M. The “IC50 [M], cell viability assay (Cell Titer-Glo, 6 days), SK-CO-1 cells” value [3] was 6.9e-11 M and the “IC50 [M], cell viability assay (Cell Titer-Glo, 6 days), SNU-16 cells” value [3] was 2.8e-10 M.

B3: mAb1 (final sequence-optimized anti-CEACAM5 antibody so8G4) (antibody, human IgG1, kappa)
heavy: EVQLQESGPGLVKPSQTLSLTCTVSDGSVSRGGYYLTWIRQHPGKGLEWIGYIYYSGSTYFNPSLRSRVTMSVDTSKNQFSLKLSSVTAADTAVYYCARGIAVAPFDYWGQGTLVTVSSASTKGPSVFPLAPSSKSTSGGTAALGCLVKDYFPEPVTVSWNSGALTSGVHTFPAVLQSSGLYSLSSVVTVPSSSLGTQTYICNVNHKPSNTKVDKRVEPKSCDKTHTCPPCPAPPVAGPSVFLFPPKPKDTLMISRTPEVTCVVVDVSHEDPEVKFNWYVDGVEVHNAKTKPREEQYNSTYRVVSVLTVLHQDWLNGKEYKCKVSNKALPSSIEKTISKAKGQPREPQVYTLPPSREEMTKNQVSLTCLVKGFYPSDIAVEWESNGQPENNYKTTPPVLDSDGSFFLYSKLTVDKSRWQQGNVFSCSVMHEALHNHYTQKSLSLSPG
light: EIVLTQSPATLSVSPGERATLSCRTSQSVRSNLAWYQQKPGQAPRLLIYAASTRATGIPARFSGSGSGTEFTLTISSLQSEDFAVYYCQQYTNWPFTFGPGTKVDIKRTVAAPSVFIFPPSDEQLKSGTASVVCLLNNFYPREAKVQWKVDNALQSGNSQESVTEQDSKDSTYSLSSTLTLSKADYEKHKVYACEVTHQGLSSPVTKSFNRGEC
notes: Labelled with pHrodo in the internalization assay
With B3 the “EC50 (read off the curve)” value [4] was about 0.2 nM, the binding result [5] was “no binding (tested: 4000 pM)” and the “EC50 (read off the curve)” value [6] was about 0.2 nM. For the same binder, the binding result [7] was “no binding (tested: 4000 pM)”, the binding result [8] was “no binding (tested: 4000 pM)” and the EC50 [9] was 0.167 nM. It also gave an EC50 [10] of 10.6 nM, an EC50 [11] of 8.3 nM and an EC50 [12] of 0.153 nM.

B4: Variant 1 (VH1.00/VL1.00) (antibody, V domains shown)
VH: EVQLQESGPGLVKPSQTLSLTCTVSDGSVSRGGYYLTWIRQHPGKGLEWIGYIYYSGSTYFNPSLRSRLTMSVDTSKNQFSLKLSSVTAADTAVYYCARGIAVAPFDYWGQGTLVTVSS
VL: ETTLTQSPATLSVSPGERATLSCRTSQSVRSNLAWYQQKPGQAPRLLIYAASTRATGIPARFSGSGSGTEFTLTIGSLQSEDFAVYFCQQYTNWPFTFGPGTKVEIKR
notes: also called optimized antibody Variant 1
B4: binds [13].

B5: Variant 6 (VH1.02/VL1.00) (antibody, V domains shown)
VH: EVQLQESGPGLVKPSQTLSLTCTVSDGSVSRGGYYLTWIRQHPGKGLEWIGYIYYSGSTYFNPSLRSRVTMSVDTSKNQFSLKLSSVTAADTAVYYCARGIAVAPFDYWGQGTLVTVSS
VL: ETTLTQSPATLSVSPGERATLSCRTSQSVRSNLAWYQQKPGQAPRLLIYAASTRATGIPARFSGSGSGTEFTLTIGSLQSEDFAVYFCQQYTNWPFTFGPGTKVEIKR
notes: also called optimized antibody Variant 6
B5: binds [13].

B6: hmn-14 (hMN14, antibody of labetuzumab govitecan) (antibody, human IgG1, kappa, V domains shown)
VH: EVQLVESGGGVVQPGRSLRLSCSASGFDFTTYWMSWVRQAPGKGLEWIGEIHPDSSTINYAPSLKDRFTISRDNAKNTLFLQMDSLRPEDTGVYFCASLYFGFPWFAYWGQGTPVTVSS
VL: DIQLTQSPSSLSASVGDRVTITCKASQDVGTSVAWYQQKPGKAPKLLIYWTSTRHTGVPSRFSGSGSGTDFTFTISSLQPEDIATYYCQQYSLYRSFGQGTKVEIKR
Work on B6 yielded an EC50 [11] of 11.8 nM.
